Measurements as given in patent US20250282887A1 (Amgen, published 2025).

Legend:
human MAGEB5 = molecular target: T1, human MAGEB5 (human, UniProt Q9BZ81 1-275); test: IHC, FFPE CHO cells transfected with human MAGEB5
T1 construct: whole, on cells; Transfected into CHO cells with Myc/DDK tags; also called CHO-MAGEB5+ cells
T1 sequence (looked up): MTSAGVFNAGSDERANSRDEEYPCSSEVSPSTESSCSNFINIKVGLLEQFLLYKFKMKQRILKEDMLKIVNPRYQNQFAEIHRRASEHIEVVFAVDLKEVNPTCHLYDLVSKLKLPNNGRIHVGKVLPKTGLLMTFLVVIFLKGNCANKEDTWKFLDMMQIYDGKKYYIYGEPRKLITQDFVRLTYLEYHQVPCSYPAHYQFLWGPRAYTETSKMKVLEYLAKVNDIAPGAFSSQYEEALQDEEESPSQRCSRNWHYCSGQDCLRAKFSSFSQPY
From the text: (§1) Negative control cells included parental Chinese hamster ovary (CHO) cells, CHO cells stably transfected with mCherry Vector Control (minus Myc/DDK tags), CHO cells stably transfected with mCherry-human DCAF4L2 (plus Myc/DDK tags). The cross-reactivity control cells included CHO cells transfected with mCherry Vector Control (plus Myc/DDK tags) with one of the human MAGE-B or MAGE-A family members (MAGEA1, MAGEA2, MAGEA3, MAGEA4, MAGEA5, MAGEA6, MAGEA8, MAGEA9, MAGEA11, MAGEA12, MAGEB1, MAGEB3, MAGEB4, MAGEB5, MAGEB6, MAGEB10, MAGEB16, MAGEB17, MAGEB18). Positive control cell lines included CHO cells transfected with mCherry Vector (plus Myc/DDK tags) with human MAGE-B2 or CHO cells transfected with mCherry Vector (open reading frame (ORF); minus Myc/DDK tags) with human MAGEB2, and thirteen human cancer cell lines with known endogenous RNA expression level of MAGEB2 (U266B1, T98G, KMM-1, U20S, CFPAC-1, SCaBER, UACC-257, CFPAC-1, VMRC-LCD, NCI-H1703, UM-UC-3, NCI-H1395, NCIH82).
(§2) FFPE samples were sectioned at 4 μm and mounted on positive charged glass slides. After mounting, paraffin sections were air-dried at room temperature. FFPE TMA samples were received as freshly sectioned and mounted on glass slides. The fully automated IHC assay was performed on a Discovery Ultra Stainer (Ventana Medical Systems, Tucson, AZ) using Ventana Anti-Rabbit HQ (cat #760-4815), Ventana Anti-HQ HRP (cat #760-4820), and Ventana Antibody Diluent with Casein (cat #760-219) (Ventana Medical Systems, Tucson, AZ). The slides were baked on the Discovery Ultra Stainer at 60° C. for 8 minutes, de-paraffinized with Ventana Discovery wash (cat #950-510) for 3 cycles (8 minutes each) at 69° C., and underwent cell conditioning (target retrieval) at 95° C. for 16 minutes (for cell arrays) or 32 minutes (tissues or TMAs) in CC1 buffer (cat #950-500). Following this, slides were incubated with Background Sniper (cat #BS966M, Biocare Medical, Pacheco, CA) in a Ventana Option Prep kit (cat #771-751) for 28 minutes, incubated with CM inhibitor (a part of the Ventana DAB kit cat #760-159) for 12 minutes, and incubated for 1 h at RT with MAGE-B2 antibody diluted with Ventana diluent with Casein in a Ventana Prep kit (cat #770-001) (working concentration at 0.1 μg/ml for cell pellet, or 1-5 ug/ml for tissues) or with a matched concentration of isotype control Rabbit IgG1 antibody.

[1] = molecular target: T2, Human MAGEB2 (Melanoma-associated antigen B2) (human, UniProt O15479 1-319); test: IHC on FFPE NCI-H1395 cells (endogenous MAGEB2)
T2 construct: Intracellular antigen detected by IHC in FFPE material: CHO cells transfected with human MAGEB2 (mCherry vector with Myc/DDK tags, or ORF without tags)
T2 sequence: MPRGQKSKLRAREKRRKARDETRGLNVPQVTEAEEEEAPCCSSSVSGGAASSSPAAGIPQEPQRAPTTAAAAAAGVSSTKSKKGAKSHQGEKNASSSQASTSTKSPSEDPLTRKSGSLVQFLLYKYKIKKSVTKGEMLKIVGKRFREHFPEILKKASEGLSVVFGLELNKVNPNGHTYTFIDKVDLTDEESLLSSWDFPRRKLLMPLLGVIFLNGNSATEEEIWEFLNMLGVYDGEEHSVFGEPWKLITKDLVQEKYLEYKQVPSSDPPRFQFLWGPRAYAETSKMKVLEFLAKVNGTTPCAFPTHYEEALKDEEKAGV
Method: as §2, with “antibody. Following this, slides were incubated with the Ventana Anti-Rabbit HQ (cat #760-4815) for 28 minutes at RT, Ventana Anti-HQ HRP (cat #760-4820) for 28 minutes at RT, and signals detected with Ventana DAB chromogen kit (cat #760-159) for 5 minutes at RT. Slides were counterstained with Ventana Hematoxylin II (cat #5266726001) for 8 minutes and Ventana Bluing reagent (cat #526676900) for 4 minutes. Slides were coverslipped and digitized using an Aperio AT2 scanner (Leica Biosystems Inc, Buffalo Grove, IL).” for “antibody.”

human MAGEA5 = molecular target: T3, human MAGEA5 (human, UniProt P43359 1-124); test: IHC, FFPE CHO cells transfected with human MAGEA5
T3 construct: whole, on cells; FFPE cell pellets
T3 sequence (looked up): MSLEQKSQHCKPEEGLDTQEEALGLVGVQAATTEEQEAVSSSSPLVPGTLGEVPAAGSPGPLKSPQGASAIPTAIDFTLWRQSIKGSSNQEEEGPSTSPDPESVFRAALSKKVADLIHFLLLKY
From the text: as §1, §2

Binder	binding result (human MAGEB5)	IHC % Frequency [1] [%]	IHC Intensity [1]	binding result (human MAGEA5)
1C3 (antibody, V domains shown, also called MAGE-B2 (IC3); anti-MAGEB2 antibody 1C3) VH: QSLEESGGGLVQPEGSLTLTCTAFGVTLTNYYICWVRQAPGKGLEWVGCIDNANGRTYYASWAKGRFTISKTSSTTGTLQMTSLTAADTATYFCARSLATPLWGPGTLVTVSS VL: DIVMTQTPSSVEAAVGGTVTIKCQASQNISSYLAWYQQKPGQPPKLLIYRASTLASGVPSRFKGSGSGTQFTLTISDLECADAATYYCQSYDDSRSSNFFYAFGGGTEVVVKG	no binding (tested: 0.1 µg/ml)	0	0	no binding (tested: 0.1 µg/ml)
4G17 (antibody, IgG1, V domains shown, Rabbit monoclonal IgG1; Tested as supernatant and as small batch purified antibody; also called MAGE-B2 (4G17); anti-MAGEB2 antibody 4G17) VH: QSLEESGGGLVQPEGSLTLTCTASGVTLSNYYICWVRQAPGKGLEWIGCIDNVNGRTYYASWAKGRFTISKTSSTTGTLQMTSLTAADTATYFCARSLATPLWGPGTLVTVSS VL: DIVMTQTPASVEAAVGGTVTIKCQASQNIDSYLAWYQQKPGQPPKLLIYRASTLASGVPSRFKGSGSGTEFTLTISDLECADAATYYCQSYDDSRSSSFFYGFGGGTEVVVK	no binding (tested: 0.1 µg/ml)	0	0	no binding (tested: 0.1 µg/ml)
1J15 (antibody, IgG1, V domains shown, Rabbit monoclonal IgG1; Tested as supernatant and as small batch purified antibody; also called MAGE-B2 (IJ15); anti-MAGEB2 antibody 1J15) VH: QSLEESGGGLVQPEGSLTLTCTAFGFTLNNYYICWVRQAPGKGLEWIACIDNANGRTYYASWAKGRFTISKTSSTTVTLQMTSLTAADTATYFCARSLSTPLWGPGTLVTVSS VL: DIVMTQTPASVEAAVGGTVTIKCQASQSISSYLSWYQQKPGQPPKLLIYRASTLASGVPSRFRGSGSGTQFTLTISDLECADAATYYCQSYDDSSDNNFFYGFGGGTEVVVR	no binding (tested: 0.1 µg/ml)	0	0	no binding (tested: 0.1 µg/ml)
1I14 (antibody, V domains shown, also called MAGE-B2 (1i14)) VH: QSVEESGGRLVTPGTPLTLTCTISGFSLSSYAMSWVRQAPGKGLEWIGSIGGGGSAVYASWAKGRFTISKTSTTVDLRITSPTTEDTAMYFCGRGFYSIDLWGPGTLVTVSS VL: DVVMTQTPASVEATVGGTVTIKCQSSQSVYDNNALAWYQQNAGQRPRLLIYGASTLASGVPSRFSASGSGTEFTLTISDLECADAATYYCQCTYYVSSYQNDFGGGTEVVVKG	no binding (tested: 0.1 µg/ml)	0	0	no binding (tested: 0.1 µg/ml)
